# Laboratory results as given in patent US8748182B2, “Mutant proteins and methods for producing them” (Heptares Therapeutics Limited, priority 2007, dated 2014).
# Values joined by “and” are separate entries in the source; they are usually repeats but may differ in a detail not shown here. Equal entries are not always repeated. Structures can show the parent of a compound that is named as a salt. Where two headings read alike, the source gives them in different places.
# B1: Rant 21: A2aR with A54L, T88A, V239A+K122A (protein, UniProt P29274 1-412, looked up, variant A54L T88A V239A K122A)
# Adenosine receptor A2a: MPIMGSSVYITVELAIAVLAILGNVLVCWAVWLNSNLQNVTNYFVVSLAAADILVGVLAIPFAITISTGFCAACHGCLFIACFVLVLAQSSIFSLLAIAIDRYIAIRIPLRYNGLVTGTRAAGIIAICWVLSFAIGLTPMLGWNNCGQPKEGKNHSQGCGEGQVACLFEDVVPMNYMVYFNFFACVLVPLLLMLGVYLRIFLAARRQLKQMESQPLPGERARSTLQKEVHAAKSLAIIAGLFALCWLPLHIINCFTFFCPDCSHAPLWLMYLAIVLSHTNSVVNPFIYAYRIREFRQTFRKIIRSHVLRQQEPFKAAGTSARVLAAHGSDGEQVSLRLNGHPPGVWANGSAPHPERRPNGYALGLVSGGSAQESQGNTGLPDVELLSHELKGVCPEPPGLDDPLAQDGAGVS
# Experiments:
# βAR-m23 [1] = molecular target: T1, βAR-m23 (Meleagris gallopavo, UniProt P07700, A282L/C116L/F327A/F338M/M90V/R68S/Y227A); assay type: binding, turkey
# T1 sequence (P07700 34-424 R68S/M90V/C116L/Y227A/A282L/F327A/F338M): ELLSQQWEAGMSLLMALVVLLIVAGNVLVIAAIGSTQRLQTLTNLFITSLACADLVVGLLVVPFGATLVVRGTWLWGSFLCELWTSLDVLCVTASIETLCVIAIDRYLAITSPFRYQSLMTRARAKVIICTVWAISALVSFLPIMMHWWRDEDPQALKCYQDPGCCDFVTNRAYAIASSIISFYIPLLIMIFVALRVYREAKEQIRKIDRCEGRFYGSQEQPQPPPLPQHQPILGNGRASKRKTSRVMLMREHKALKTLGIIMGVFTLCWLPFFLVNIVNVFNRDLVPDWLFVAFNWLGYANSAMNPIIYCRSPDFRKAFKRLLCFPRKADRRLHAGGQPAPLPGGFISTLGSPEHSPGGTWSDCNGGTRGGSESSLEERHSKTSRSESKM
# βAR-m23 [2] = molecular target: T1, βAR-m23; test: biochemical; assay type: binding, turkey
# [3] = Stability of βAR-m23 and βAR34-424 in different detergents (Ni-NTA partially purified); assay type: physicochemical
# Procedure: FIGS. 6A-6C Stability of βAR-m23 and βAR34-424 in five different detergents. […] Assays were carried out as described in the Methods and the Tm is shown at the intersection between the curves and the discontinuous line. Results are from duplicate measurements in a representative experiment performed in parallel.
# Membranes prepared from E. coli expressing βAR-m23 or βAR34-424 were solubilised in DDM, bound to Ni-NTA agarose then washed with either DDM, decylmaltoside (DM), octylglucoside (OG), lauryldimethylamine oxide (LDAO) or nonylglucoside (NG). […] In contrast, functional βAR-m23 was still present in all detergents and the Tm could be determined. As expected, the smaller detergents were considerably more denaturing than either DDM (Tm 52° C.) or DM (Tm 48° C.), with Tms of 25° C. (NG), 23° C. (LDAO) and 17° C. (OG). The difference in Tm between βAR-m23 and βAR34-424 is about 20° C., irrespective of whether the receptors were solubilised in either DDM or DM; […] . The selection strategy used for the generation of βAR-m23 was chosen deliberately to be based upon thermostability, because it is far simpler to apply than selecting for stability in detergents of increasing harshness.
# Receptors were eluted in 2×100 μl of buffer (0.4 M NaCl, 1 mM EDTA, 250 mM imidazole pH 8, plus the relevant detergent). […] .
# Single point binding assays contained 20 mM Tris pH 8, 0.4 M NaCl, 1 mM EDTA, 0.1% DDM (or corresponding detergent) with 50 nM [^3H]-DHA and 20-100 μg membrane protein in a final volume of 120 μl; equilibration was for 1 h at 4° C. Thermostability was assessed by incubating the binding assay mix, with or without [^3H]-DHA at the specified temperature for 30 minutes; reactions were placed on ice and [^3H]-DHA added as necessary and equilibrated for a further hour. Receptor-bound and free radioligand were separated by gel filtration as described previously. Non-specific binding was determined in the presence of 1 μM of s-propranolol. […] Radioactivity was counted on a Beckman LS6000 liquid scintillation counter and data were analyzed by nonlinear regression using Prism software (GraphPad).
# [4] = Thermostability assay of detergent-solubilised βAR34-424 and mutants expressed in E. coli ([3H]-DHA binding after heating 30 min)
# Procedure: To determine Tm in the absence of ligand (apo-state, discontinuous lines), detergent-solubilised receptors were incubated for 30 minutes at the temperatures indicated before carrying out the binding assay. […] Data points are from duplicates measurements in a representative experiment.
# Binding assays were performed using [^3H]-dihydroalprenolol (DHA) as radioligand as described under “Methods”. Samples were heated for 30 minutes at different temperatures before the assay. […] Data points are from duplicates of one single experiment. This experiment has been repeated several times with similar results.
# Expression of βAR and the mutants was performed in XL10 cells (Stratagene). Cultures of 50 ml of 2×TY medium containing ampicillin (100 μg/ml) were grown at 37° C. with shaking until OD600=3 and then induced with 0.4 mM IPTG. Induced cultures were incubated at 25° C. for 4 h and then cells were harvested by centrifugation at 13,000×g for 1 min (aliquots of 2 ml) and stored at −20° C. For the assays, cells were broken by freeze-thaw (five cycles), resuspended in 500 μl of buffer [20 mM Tris pH 8, 0.4 M NaCl, 1 mM EDTA and protease inhibitors (Complete™, Roche)]. After an incubation for 1 h at 4° C. with 100 μg/ml lysozyme and DNase I (Sigma), samples were solubilized with 2% DDM on ice for 30 minutes. Insoluble material was removed by centrifugation (15,000×g, 2 min, 4° C.) and the supernatant was used directly in radioligand binding assays.
# Single point binding assays contained 20 mM Tris pH 8, 0.4 M NaCl, 1 mM EDTA, 0.1% DDM (or corresponding detergent) with 50 nM [^3H]-DHA and 20-100 μg membrane protein in a final volume of 120 μl; equilibration was for 1 h at 4° C. Thermostability was assessed by incubating the binding assay mix, with or without [^3H]-DHA at the specified temperature for 30 minutes; reactions were placed on ice and [^3H]-DHA added as necessary and equilibrated for a further hour. […] Radioactivity was counted on a Beckman LS6000 liquid scintillation counter and data were analyzed by nonlinear regression using Prism software (GraphPad).
# [5] = Thermostability of solubilised adenosine A2a receptor and mutants (radioligand binding after or during heating); assay type: physicochemical
# Outline: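 Solubilised A2aR mutants heated, then assayed for agonist and antagonist radioligand binding after the heating step (ligand(−) format); a ligand(+) format was also used. Thermostability expressed as Tm (° C), with ZM241385 bound where indicated.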
# [6] = Stability of wild-type and mutant A2aR in different detergents; assay type: physicochemical
# [7] = [3H]-DHA bound during the heating step
molecule,measurement,setting,value
"1-[4,6-propyl-^3H]-dihydroalprenolol [[^3H]-dihydroalprenolol]",Kd,"βAR-m23 [1]; membranes, n=2, read-out: KD of [3H]-dihydroalprenolol",6.5 ± 0.2 nM
same,Kd,"βAR-m23 [1]; semipurified receptor, read-out: KD for [3H]-DHA binding",12.5 nM
"C=CCc1ccccc1OC[C@@H](O)CNC(C)C [alprenolol, (−) alprenolol tartrate salt]",EC50,βAR-m23 [2],112 nM
"m23: βAR34-424 with R68S, M90V, Y227A, A282L, F327A, F338M",Tm in DDM,[3]; DDM,52 °C
same,Tm in DM,[3]; DM (decylmaltoside),48 °C
same,Tm in LDAO,[3]; LDAO,23 °C
same,Tm in NG,[3]; NG (nonylglucoside),25 °C
same,Tm in OG,[3]; OG (octylglucoside),17 °C
same,difference in Tm between βAR-m23 and βAR34-424,[3]; solubilised in either DDM or DM,about 20 °C
same,increase in Tm compared to βAR34-424 (native protein),"[4]; DDM-solubilised, heated without ligand",21 °C
same,Tm (° C.),"[4]; Table 2, heated 30 min without ligand, then [3H]-DHA binding, DDM-solubilised, E. coli, mean ± S.E. from duplicates",52.8 °C and 52.8 ± 1.4 °C
same,Tm with antagonist bound,[4]; [7],55 °C
same,increase in Tm with bound antagonist versus without antagonist,[4]; [7],2 °C
same,further increase in Tm on adding one mutation to the preceding mutant,"[4]; m4-1 to m4-7 to m4-2, m18 to m23",3 °C
B1,Tm (° C.) − antagonist,"[5]; 1% DDM (no glycerol), apo-state, S.D. <1° C.",41 °C
same,Tm (° C.) + antagonist,"[5]; 1% DDM (no glycerol), ligand-occupied state, S.D. <1° C.",49 °C
same,Tm (ZM241385 bound),[5]; ZM241385 bound,49 °C
same,Tm (° C.) Antagonist-binding,[6]; 0.003% LDAO,42 °C
same,Tm (° C.) Antagonist-binding,[6]; 0.006% FC12,49 °C
same,Tm (° C.) Antagonist-binding,[6]; 0.01% DDM,39 °C
same,Tm (° C.) Antagonist-binding,[6]; 0.1% DM,28 °C
same,Tm (° C.) Antagonist-binding,"[6]; 0.3% NG, † = receptor too unstable to determine the Tm",22 °C
same,Tm (° C.) Antagonist-binding,[6]; 0.3% NM,25 °C
same,Tm (° C.) Antagonist-binding,"[6]; 0.6% OG, † = receptor too unstable to determine the Tm",23 °C
